Reference: PMC9761383 (2022)

What was measured:
[1] = biological target: collagen α1α1α2(IV) purified from conditioned culture medium of LH3 KO PFHR9 cells (mouse (endogenous in PFHR9)); test: rotary shadow electron microscopy; purified collagen α1α1α2(IV) (about 100 μg/ml) in 0.2 M acetic acid, 70% glycerol, sprayed on mica, carbon/platinum shadowed; molecules counted (WT n = 690, LH3 KO n = 295); hexamers = two heterotrimers, dodecamers = four heterotrimers
[2] = biological target: collagen α1α1α2(IV) purified from conditioned culture medium of WT PFHR9 cells (mouse (endogenous in PFHR9)); test: as above
[3] = biological target: T1, collagen α1α1α2(IV) purified from conditioned culture medium of WT PFHR9 cells (mouse (endogenous in PFHR9), hydroxylysines, almost fully modified to glucosyl galactosyl Hyl; 4-hydroxyproline; 3-hydroxyproline | hydroxylysines, almost fully modified to glucosyl galactosyl Hyl; 4-hydroxyproline; …); test: SPR
[4] = biological target: T2, collagen α1α1α2(IV) purified from conditioned culture medium of LH3 KO PFHR9 cells (mouse (endogenous in PFHR9), more unmodified lysines (significantly fewer hydroxylysines)); high occupancy of galactosyl Hyl but not glucosyl galactosyl Hyl; prolyl 4 hydroxylation reduced | more unmodified lysines (significantly …); test: SPR
[5] = biological target: T1, collagen α1α1α2(IV) purified from …; test: SPR; remark: listed apart in the source
[6] = biological target: T2, collagen α1α1α2(IV) purified from …; test: SPR; remark: listed apart in the source

T1 sequence (P02463 28-1669, chain 1 of 2): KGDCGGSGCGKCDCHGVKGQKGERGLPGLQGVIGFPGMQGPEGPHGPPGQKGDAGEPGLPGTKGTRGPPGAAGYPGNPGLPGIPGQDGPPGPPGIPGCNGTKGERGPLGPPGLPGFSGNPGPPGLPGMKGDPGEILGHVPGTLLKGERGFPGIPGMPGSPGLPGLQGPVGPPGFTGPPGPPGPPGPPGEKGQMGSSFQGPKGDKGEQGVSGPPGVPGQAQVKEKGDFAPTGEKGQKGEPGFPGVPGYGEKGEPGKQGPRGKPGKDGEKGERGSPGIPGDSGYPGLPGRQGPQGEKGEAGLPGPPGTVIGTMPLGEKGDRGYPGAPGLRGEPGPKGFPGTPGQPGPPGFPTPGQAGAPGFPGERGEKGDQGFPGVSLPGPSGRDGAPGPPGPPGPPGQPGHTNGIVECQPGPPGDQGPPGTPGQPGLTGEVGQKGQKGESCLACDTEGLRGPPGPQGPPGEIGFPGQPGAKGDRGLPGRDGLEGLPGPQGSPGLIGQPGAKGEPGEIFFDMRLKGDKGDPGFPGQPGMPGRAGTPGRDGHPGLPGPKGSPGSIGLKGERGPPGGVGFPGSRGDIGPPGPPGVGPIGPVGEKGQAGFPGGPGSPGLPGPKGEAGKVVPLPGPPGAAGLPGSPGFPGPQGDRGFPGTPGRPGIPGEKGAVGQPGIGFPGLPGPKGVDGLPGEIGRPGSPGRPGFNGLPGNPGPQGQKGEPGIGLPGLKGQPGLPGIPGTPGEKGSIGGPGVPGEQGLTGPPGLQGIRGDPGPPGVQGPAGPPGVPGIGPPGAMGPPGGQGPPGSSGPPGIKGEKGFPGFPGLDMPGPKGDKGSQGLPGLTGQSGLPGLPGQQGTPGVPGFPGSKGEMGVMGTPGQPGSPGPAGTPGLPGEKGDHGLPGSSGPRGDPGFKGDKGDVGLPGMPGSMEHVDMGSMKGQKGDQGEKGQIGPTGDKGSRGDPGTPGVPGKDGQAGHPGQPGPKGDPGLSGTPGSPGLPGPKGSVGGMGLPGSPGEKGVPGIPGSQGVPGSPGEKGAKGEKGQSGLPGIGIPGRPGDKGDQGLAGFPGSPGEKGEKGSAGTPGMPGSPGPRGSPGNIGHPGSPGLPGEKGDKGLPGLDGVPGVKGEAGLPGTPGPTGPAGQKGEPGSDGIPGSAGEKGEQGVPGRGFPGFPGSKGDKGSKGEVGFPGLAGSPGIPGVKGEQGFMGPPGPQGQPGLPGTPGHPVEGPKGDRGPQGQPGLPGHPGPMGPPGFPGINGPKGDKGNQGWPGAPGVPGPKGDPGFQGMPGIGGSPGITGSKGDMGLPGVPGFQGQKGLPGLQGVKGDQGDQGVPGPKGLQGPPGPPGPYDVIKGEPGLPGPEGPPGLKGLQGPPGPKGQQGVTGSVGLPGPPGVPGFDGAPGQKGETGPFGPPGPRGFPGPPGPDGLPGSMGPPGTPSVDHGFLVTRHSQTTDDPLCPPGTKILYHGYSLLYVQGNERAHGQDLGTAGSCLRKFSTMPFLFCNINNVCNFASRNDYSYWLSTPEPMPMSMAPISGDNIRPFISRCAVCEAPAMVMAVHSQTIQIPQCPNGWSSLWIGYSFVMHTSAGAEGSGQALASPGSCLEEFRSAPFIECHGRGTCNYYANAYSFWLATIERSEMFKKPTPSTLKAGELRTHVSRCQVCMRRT
T1 sequence (P08122 26-1707, chain 2 of 2, further chain): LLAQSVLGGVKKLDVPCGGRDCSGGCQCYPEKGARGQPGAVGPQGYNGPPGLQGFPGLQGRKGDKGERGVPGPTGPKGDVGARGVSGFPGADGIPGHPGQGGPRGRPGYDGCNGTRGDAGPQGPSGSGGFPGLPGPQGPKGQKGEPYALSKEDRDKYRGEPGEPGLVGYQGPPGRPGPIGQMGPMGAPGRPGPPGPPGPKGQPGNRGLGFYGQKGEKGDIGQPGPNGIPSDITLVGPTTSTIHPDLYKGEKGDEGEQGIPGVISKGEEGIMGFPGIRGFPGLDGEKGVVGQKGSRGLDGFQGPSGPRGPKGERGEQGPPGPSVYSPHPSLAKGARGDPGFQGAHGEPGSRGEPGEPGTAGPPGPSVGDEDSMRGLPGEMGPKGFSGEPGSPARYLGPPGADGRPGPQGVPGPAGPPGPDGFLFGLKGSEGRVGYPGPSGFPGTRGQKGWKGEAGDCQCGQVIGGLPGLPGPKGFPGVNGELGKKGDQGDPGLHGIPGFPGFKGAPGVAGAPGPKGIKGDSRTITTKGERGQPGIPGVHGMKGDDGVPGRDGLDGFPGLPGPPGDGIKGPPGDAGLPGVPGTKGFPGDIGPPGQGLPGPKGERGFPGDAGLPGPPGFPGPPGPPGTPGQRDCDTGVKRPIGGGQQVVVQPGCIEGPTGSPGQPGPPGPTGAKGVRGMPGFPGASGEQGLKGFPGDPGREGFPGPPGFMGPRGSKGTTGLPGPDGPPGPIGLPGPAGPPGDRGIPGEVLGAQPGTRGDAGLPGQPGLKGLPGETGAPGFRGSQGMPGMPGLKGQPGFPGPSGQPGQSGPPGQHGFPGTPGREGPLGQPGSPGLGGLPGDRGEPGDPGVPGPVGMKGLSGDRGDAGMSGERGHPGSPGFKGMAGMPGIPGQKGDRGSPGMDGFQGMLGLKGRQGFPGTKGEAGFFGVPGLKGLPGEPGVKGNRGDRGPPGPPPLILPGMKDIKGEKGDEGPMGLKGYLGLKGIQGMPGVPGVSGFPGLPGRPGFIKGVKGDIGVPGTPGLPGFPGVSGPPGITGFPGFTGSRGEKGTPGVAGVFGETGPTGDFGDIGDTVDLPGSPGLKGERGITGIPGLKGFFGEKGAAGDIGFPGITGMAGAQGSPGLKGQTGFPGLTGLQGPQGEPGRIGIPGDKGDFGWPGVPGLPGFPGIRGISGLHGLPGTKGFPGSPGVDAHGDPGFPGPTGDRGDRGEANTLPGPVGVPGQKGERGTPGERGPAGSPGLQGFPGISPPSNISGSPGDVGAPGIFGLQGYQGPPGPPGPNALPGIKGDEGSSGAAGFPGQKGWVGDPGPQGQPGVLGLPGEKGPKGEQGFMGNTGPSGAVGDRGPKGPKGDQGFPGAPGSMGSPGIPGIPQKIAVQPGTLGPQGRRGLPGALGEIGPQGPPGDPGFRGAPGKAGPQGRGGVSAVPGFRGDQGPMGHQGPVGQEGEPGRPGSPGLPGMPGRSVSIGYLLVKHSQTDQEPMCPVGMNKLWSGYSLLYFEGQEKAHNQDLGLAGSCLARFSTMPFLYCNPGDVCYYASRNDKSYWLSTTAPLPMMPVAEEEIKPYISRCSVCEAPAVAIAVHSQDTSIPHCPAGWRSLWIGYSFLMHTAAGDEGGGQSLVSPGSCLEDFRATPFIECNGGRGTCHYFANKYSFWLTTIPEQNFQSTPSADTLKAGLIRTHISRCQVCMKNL
T2 sequence (P02463 28-1669, chain 1 of 2): as the sequence (P02463 28-1669, chain 1 of 2) above
T2 sequence (P08122 26-1707, chain 2 of 2, further chain): as the sequence (P08122 26-1707, chain 2 of 2, further chain) above

collagen α1α1α2(IV) purified from conditioned culture medium of LH3 KO PFHR9 cells (complex)
percent of molecules seen as shortened hexamers (two heterotrimers) [1]: 7.8%

collagen α1α1α2(IV) purified from conditioned culture medium of WT PFHR9 cells (complex)
percent of molecules seen as dodecamers (four heterotrimers) [2]: 9% | percent of molecules seen as hexamers (two heterotrimers) [2]: 8.5%

B1: heat shock protein 47 (natural protein)
chain: VPSEDRKLSDKATTLADRSTTLAFNLYHAMAKDKNMENILLSPVVVASSLGLVSLGGKATTASQAKAVLSADKLNDDYVHSGLSELLNEVSNSTARNVTWKIGNRLYGPASINFADDFVKNSKKHYNYEHSKINFRDKRSALKSINEWAAQTTDGKLPEVTKDVEKTDGALIVNAMFFKPHWDEKFHHKMVDNRGFMVTRSYTVGVPMMHRTGLYNYYDDEAEKLQVVEMPLAHKLSSMIFIMPNHVEPLERVEKLLNREQLKTWASKMKKRSVAISLPKVVLEVSHDLQKHLADLGLTEAIDKTKADLSKISGKKDLYLSNVFHAAALEWDTDGNPYDADIYGREEMRNPKLFYADHPFIFMIKDSKTNSILFIGRLVRPKGDKMRDEL
Kd [3]: 0.0179 µM | Kd [4]: 0.116 µM | koff [5]: 0.0226 s⁻¹ | koff [6]: 0.107 s⁻¹
